First the molecules themselves.
B1: Transcription intermediary factor 1-beta, residues 620 to 671; numbered along this chain, Q13263 (parent)
chain: TLDDSATICRVCQKPGDLVMCNQCEFCFHLDCHLPALQDVPGEEWSCSLCHV
B2: Tudor domain-containing protein 3, residues 554 to 611; numbered along this chain, Q9H7E2 (parent)
chain: KMWKPGDECFALYWEDNKFYRAEVEALHSSGMTAVVKFIDYGNYEEVLLSNIKPIQTE

The values below come from the Human Domainome abundance scans (Beltran et al. 2025).

± gives the uncertainty stated by the source.

The first data set covers variants of B1. Kind of data set: abundance fitness (aPCA) (normalised: wild type 0, dead -1); higher = more abundant; growth selection in yeast, the domain comes from the species named. Particulars: Homo sapiens.
As for T1H, the abundance fitness was -0.593 ± 0.34.
Turning to T1A, the abundance fitness is 0.314 ± 0.28.
Take T1S: the abundance fitness was -0.096 ± 0.17.
For T1D, the abundance fitness was 0.178 ± 0.35.
The same measure, in the same setting: the figure for T1W is -0.8 ± 0.33.
In the case of T1V, the abundance fitness is -0.043 ± 0.27.
The same measure, in the same setting: in the case of T1K it was 0.109 ± 0.24; in that of T1N, 0.184 ± 0.36; in that of T1E, -0.11 ± 0.45.
On to T1R, for which the abundance fitness was -0.495 ± 0.23.
Take T1G: the abundance fitness was -0.602 ± 0.27.
As for T1M, the abundance fitness was -0.363 ± 0.32.
Regarding D4C, the abundance fitness was 0.201 ± 0.1.
In the case of D4N, the abundance fitness is 0.074 ± 0.11.
Regarding D4R, the abundance fitness worked out at 0.015 ± 0.072.
Same read-out and setting: in the case of D4G it was -0.219 ± 0.082.
As to D4P, the abundance fitness is -0.155 ± 0.12.
Same read-out and setting: the figure for D4L is 0.135 ± 0.081; for D4Q it is -0.294 ± 0.17; for D4A it is -0.141 ± 0.1.
For the variant D4F, the abundance fitness was -0.19 ± 0.15.
The same measure, in the same setting: the figure for D4K is 0.284 ± 0.16; for D4S it is 0.016 ± 0.086; for D4M it is 0.083 ± 0.096.
Same read-out and setting: in the case of D4V it was 0.148 ± 0.093.
Same read-out and setting: in the case of D4H it was -0.035 ± 0.26; in that of A6H, -0.303 ± 0.17; in that of A6V, -0.35 ± 0.08.
For A6D, the abundance fitness was -0.274 ± 0.22.
Same read-out and setting: the figure for A6M is -0.069 ± 0.19; for A6Q it is -0.261 ± 0.13.
A6E: the abundance fitness worked out at 0.25 ± 0.12.
Still for that read-out and setting: in the case of A6W it was -0.86 ± 0.17; in that of A6C, -0.973 ± 0.21; in that of A6R, -0.275 ± 0.11.
Same read-out and setting: in the case of A6S it was -0.223 ± 0.097; in that of A6L, -0.202 ± 0.081.
Consider A6P, for which the abundance fitness is -0.234 ± 0.16.
In the case of D3W, the abundance fitness was -0.302 ± 0.12.
Take D3V: the abundance fitness was -0.487 ± 0.1.
With D3T, the abundance fitness was -0.661 ± 0.15.
For the variant D3F, the abundance fitness turned out to be 0.053 ± 0.12.
Same read-out and setting: the figure for D3A is -0.723 ± 0.14; for D3Q it is -0.603 ± 0.18.
Same read-out and setting: the figure for D3R is -0.294 ± 0.096.
Regarding D3S, the abundance fitness is -0.223 ± 0.11.
Still for that read-out and setting: in the case of D3M it was -0.529 ± 0.16.
Same read-out and setting: in the case of D3G it was -0.411 ± 0.099; in that of D3I, -0.292 ± 0.2.
As for D3C, the abundance fitness was -0.534 ± 0.17.
Still for that read-out and setting: the figure for D3N is -0.112 ± 0.14; for D3L it is -0.242 ± 0.11; for D3H it is -0.205 ± 0.15.
On the same count and under the same terms, the figure for D3E is 0.13 ± 0.13; for D3K it is 0.027 ± 0.2.
Same read-out and setting: in the case of C9P it was -0.324 ± 0.11; in that of C9Q, -1.12 ± 0.48.
With C9M, the abundance fitness is -0.706 ± 0.32.
Same read-out and setting: in the case of C9R it was -1.18 ± 0.2; in that of C9G, -0.931 ± 0.11.
Same read-out and setting: the figure for C9A is -0.861 ± 0.15; for C9K it is -0.802 ± 0.42.
On to C9I, for which the abundance fitness was -0.955 ± 0.3.
On the same count and under the same terms, in the case of C9N it was -0.469 ± 0.23; in that of S5L, -0.596 ± 0.12.
Same read-out and setting: in the case of S5E it was -0.314 ± 0.1; in that of S5G, -0.308 ± 0.076; in that of S5Q, -0.215 ± 0.11.
Take S5D: the abundance fitness was -0.267 ± 0.43.
Still for that read-out and setting: in the case of S5T it was -0.193 ± 0.13.
Still for that read-out and setting: in the case of S5W it was -0.307 ± 0.11; in that of S5I, -0.04 ± 0.17; in that of S5R, -0.064 ± 0.077.
Take S5P: the abundance fitness is -0.18 ± 0.14.
Regarding S5F, the abundance fitness was -0.227 ± 0.22.
Same read-out and setting: the figure for S5K is -0.03 ± 0.12; for S5M it is -0.267 ± 0.11.
For S5C, the abundance fitness was -0.157 ± 0.23.
Still for that read-out and setting: in the case of S5N it was -0.444 ± 0.36; in that of S5V, -0.381 ± 0.093; in that of L2D, -0.078 ± 0.17.
Same read-out and setting: the figure for L2F is -0.168 ± 0.15.
On to L2E, for which the abundance fitness is 0.021 ± 0.17.
The same measure, in the same setting: the figure for L2G is -0.604 ± 0.16; for L2C it is -0.198 ± 0.18; for L2P it is 0.179 ± 0.27.
Take L2R: the abundance fitness is -0.252 ± 0.12.
The same measure, in the same setting: the figure for L2M is 0.021 ± 0.17.
As to L2V, the abundance fitness is -0.13 ± 0.1.
For L2H, the abundance fitness was -0.678 ± 0.4.
Turning to L2I, the abundance fitness was -0.112 ± 0.19.
As for L2S, the abundance fitness is -0.004 ± 0.14.
Regarding L2Q, the abundance fitness worked out at 0.016 ± 0.14.
L2N: the abundance fitness was determined as 0.017 ± 0.25.
The same measure, in the same setting: in the case of L2K it was -0.056 ± 0.33; in that of L2Y, 0.045 ± 0.17.
Turning to L2W, the abundance fitness is -0.323 ± 0.13.
As for T7V, the abundance fitness is -0.066 ± 0.088.
As for T7P, the abundance fitness was -0.204 ± 0.19.
As for T7A, the abundance fitness was -0.123 ± 0.098.
With T7Q, the abundance fitness is -0.118 ± 0.27.
On to T7N, for which the abundance fitness is -0.176 ± 0.15.
Same read-out and setting: in the case of T7S it was -0.079 ± 0.09; in that of T7K, -0.022 ± 0.13.
The same measure, in the same setting: the figure for T7E is 0.004 ± 0.13; for T7G it is -0.207 ± 0.08; for T7F it is -0.383 ± 0.12.
With T7I, the abundance fitness is -0.013 ± 0.13.
Same read-out and setting: the figure for T7C is -0.451 ± 0.16; for T7R it is 0.077 ± 0.11; for T7Y it is 0.007 ± 0.15.
The same measure, in the same setting: in the case of T7L it was -0.41 ± 0.12.
T7M: the abundance fitness was -0.143 ± 0.15.
The same measure, in the same setting: in the case of T7H it was -0.138 ± 0.14; in that of T7D, 0.024 ± 0.12; in that of T7W, -0.429 ± 0.15.
In the case of I8L, the abundance fitness stood at 0.03 ± 0.092.
For I8C, the abundance fitness was 0.083 ± 0.12.
I8E: the abundance fitness was -0.065 ± 0.11.
As for I8P, the abundance fitness is -0.302 ± 0.13.
Same read-out and setting: the figure for I8V is -0.095 ± 0.081.
On the same count and under the same terms, the figure for I8W is -0.348 ± 0.11; for I8N it is -0.045 ± 0.17; for I8K it is -0.107 ± 0.14.
Still for that read-out and setting: the figure for I8Q is 0.085 ± 0.15; for I8A it is -0.099 ± 0.095; for I8H it is -0.123 ± 0.14.
On to I8D, for which the abundance fitness was -0.51 ± 0.13.
The same measure, in the same setting: the figure for I8M is 0.056 ± 0.11; for I8F it is 0.087 ± 0.22; for I8G it is -0.418 ± 0.078.
The same measure, in the same setting: in the case of I8Y it was 0.077 ± 0.12.

The variants in the next data set derive from B2. Described as above. Conditions: Homo sapiens.
As for E58H, the abundance fitness was -0.304 ± 0.12.
Same read-out and setting: in the case of E58K it was -0.024 ± 0.2; in that of E58L, -0.183 ± 0.12; in that of E58M, -0.175 ± 0.14.
Take E58Y: the abundance fitness is -0.157 ± 0.25.
Still for that read-out and setting: the figure for E58T is -0.037 ± 0.23.
On the same count and under the same terms, in the case of E58Q it was -0.252 ± 0.29; in that of E58A, -0.133 ± 0.085.
Still for that read-out and setting: in the case of E58I it was -0.187 ± 0.23; in that of E58N, 0.049 ± 0.29.
For E58D, the abundance fitness was -0.058 ± 0.081.
On to E58C, for which the abundance fitness was -0.062 ± 0.16.
In the case of E58W, the abundance fitness was -0.068 ± 0.24.
For E58F, the abundance fitness is -0.314 ± 0.24.
Regarding E58R, the abundance fitness was -0.111 ± 0.12.
The same measure, in the same setting: the figure for E58S is 0.113 ± 0.11; for E58V it is -0.136 ± 0.084.
Still for that read-out and setting: in the case of E58G it was -0.042 ± 0.082; in that of I55W, -0.372 ± 0.078.
With I55S, the abundance fitness is -0.192 ± 0.067.
For the variant I55D, the abundance fitness was -0.415 ± 0.1.
I55G: the abundance fitness was -0.351 ± 0.051.
Same read-out and setting: in the case of I55C it was -0.041 ± 0.074; in that of I55R, -0.068 ± 0.055.
In the case of I55T, the abundance fitness was -0.18 ± 0.097.
The same measure, in the same setting: the figure for I55F is -0.1 ± 0.13; for I55N it is -0.265 ± 0.12.
In the case of I55V, the abundance fitness was -0.039 ± 0.063.
The same measure, in the same setting: in the case of I55Y it was -0.132 ± 0.11; in that of I55K, -0.139 ± 0.089.
For I55A, the abundance fitness was -0.028 ± 0.079.
Same read-out and setting: in the case of I55P it was -0.084 ± 0.11; in that of I55E, -0.558 ± 0.099; in that of I55M, -0.096 ± 0.095.
Still for that read-out and setting: the figure for S50Y is -0.437 ± 0.097.
